Data as given in article PMC7039556.

What was measured:
[1] = target: isolated human low-density lipoprotein (LDL) particles; experiment: density gradient ultracentrifugation of PCSK9-LDL binding reactions, Western blot densitometry; conditions: conditioned cell culture medium incubated with LDL; n = 4; read off a plot
[2] = target: isolated human low-density lipoprotein (LDL) particles (human (endogenous in plasma)); experiment: co-sedimentation; Optiprep density gradient ultracentrifugation: 1 μg PCSK9 (concentrated conditioned medium) with 500 μg isolated human LDL in 1.0 ml HBS-C (25 mM HEPES-KOH pH 7.4, 150 mM NaCl, 2 mM CaCl2), 0.5% BSA, 37 °C 1 h; LDL fraction immunoprecipitated with anti-PCSK9 serum, PCSK9 quantified by Western blot and normalised to WT

Substance | ratio to parent [1] | further results
FLAG epitope-tagged recombinant human WT PCSK9 (proprotein convertase subtilisin/kexin type-9) (from UniProt Q8NBP7) Y38F | 1 | –
FLAG epitope-tagged recombinant human WT PCSK9 (proprotein convertase subtilisin/kexin type-9) (from UniProt Q8NBP7) Y38L | 0.92 | –
human PCSK9 with the hydrophobic stretch (aa 41–45) and Arg-46 replaced by a glycine-serine linker (from UniProt Q8NBP7 31-152; Q8NBP7 153-692) (natural protein) | – | percent reduction of LDL binding against WT PCSK9 [2]: > 60%
R469W and F515L substitutions (PCSK9) | – | percent decrease of LDL binding against WT PCSK9 [2]: 60 to 70%
